B1: 340-353 isopropylmalate isomerase (peptide)
chain: GLEPNTPLKSIKVD
B2: 619-632 " contains 3 SH3 domains, interacts with Bee1p" (peptide)
chain: ELPPIKPPRPTSTT
B3: 356-369 mitochondrial protein; (putative) chaperone (peptide)
chain: EYSPLVPSKMSADK
B4: 316-329 " Yeast homologue of mammalian GRASP proteins, also localised to the Golgi apparatus." (peptide)
chain: FTAPPVPTKKKSKN
B5: 164-177 Homolog of mammalian 14-3-3 proteins;member of conserved eukaryotic 14-3-3 gene family (peptide)
chain: ELPPTHPIRLGLAL
B6: 74-87 Hypothetical ORF (peptide)
chain: FSHPLSPLKSNFID
B7: 51-64 Product of gene unknown (peptide)
chain: EMIPSSPQRKSVSN
B8: 112-125 Hypothetical ORF (peptide)
chain: FFHPAIPLKNAAPF
B9: 476-489 Mitochondrial outer membrane protein involved in mitochondrial morphology and inheritance (peptide)
chain: GNIPVFPAKFGIQF
B10: 193-206 subunit of a cytoplasmic histone acetyltransferase (peptide)
chain: GGDPTKPVRTWNDL
B11: 100-113 35 kDa protein belonging to the high mobility group (HMG) fanily of proteins (peptide)
chain: ERDPNAPKKPLTVF
B12: 591-604 Hypothetical ORF (peptide)
chain: EYFPISPEKKEEME
B13: 196-209 Product of gene unknown (peptide)
chain: FDFPLSPVKHENPT
B14: 638-651 transcription factor (peptide)
chain: ENFPIVPLKSVAQD
B15: 234-247 Hypothetical ORF (peptide)
chain: EYHPIKPLRSSSST
B16: 53-66 "glucose repression protein, a component of the Snf1 complex" (peptide)
chain: ELEPQHPLRHKSSL
B17: 549-562 Arf-binding protein (peptide)
chain: ENAPANPSKALKVK
B18: 587-600 Hypothetical ORF (peptide)
chain: FLPPPKPFRHTETK
B19: 124-137 Unknown (peptide)
chain: GAKPKIPSKLYQSV
B20: 526-539 " Putative integral membrane protein containing novel cysteine motif. Similarity to SLG1 (WSC1), WSC2 and WSC3" (peptide)
chain: FHDPILPRRTSTFL
B21: 88-101 HMG1-box containing protein (peptide)
chain: ERDPNMPKRPTNAY
B22: 471-484 Hypothetical ORF (peptide)
chain: FISPHLPMKGRLVL
B23: 171-184 " 1,4-glucan-6-(1,4-glucano)-transferase" (peptide)
chain: FWNPENPYKFVHPR
B24: 81-94 Hypothetical ORF (peptide)
chain: ENVPLYPSRRNIWE
B25: 440-453 Hypothetical ORF (peptide)
chain: FPYPFKPSRVGVKY
B26: 393-406 Actin binding protein (peptide)
chain: FSKPQEPVKAEEAE
B27: 41-54 Putative helicase similar to RAD54 (peptide)
chain: ENKPFKPPRRVGSN
B28: 862-875 Pho85 kinase inhibitor (peptide)
chain: FPYPGNPLKIINYE
B29: 687-700 putative serine/threonine kinase (peptide)
chain: EVSPVEPKRTENER
B30: 379-392 Hypothetical ORF (peptide)
chain: GGQPPVPVRMQPQP
B31: 375-388 transcription factor (peptide)
chain: FPDPNNPSKVQIRM
B32: 1359-1372 negative regulator of early meiotic gene expression (peptide)
chain: ETVPTEPTRYNYQN
B33: 256-269 mitochondrial ribosomal protein L2 of the large subunit (peptide)
chain: GITPVGPGKFSRSA
B34: 91-104 phosphatidylserine decarboxylase located in vacuole or Golgi (peptide)
chain: GAPPTTPSRPRTTT
B35: 310-323 H+-biotin symporter (peptide)
chain: FVIPGVPSKSYSLF
B36: 276-289 involved in cell wall biogenesis (peptide)
chain: ELDPISPLKVPLTA
B37: 106-119 " mRNA guanylyltransferase (mRNA capping enzyme), alpha subunit" (peptide)
chain: FRFPRLPQKKKEEL
B38: 657-670 Hypothetical ORF (peptide)
chain: FQPPPKPFRRSQSS
B39: 528-541 Ubiquitin-specific protease (peptide)
chain: EIPPPLPPKIMVHS

In the test the target is Sho1 SH3 (SHO1_YEAST), P40073. The experiment in a line: SPOT array.
Sequence of Sho1 SH3 (SHO1_YEAST), P40073 (P40073 295-366): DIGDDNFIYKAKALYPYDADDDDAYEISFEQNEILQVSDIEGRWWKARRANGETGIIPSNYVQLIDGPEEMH
Molecule B1 had a normalised SPOT signal, Boehringer light units (BLU); mean over the file's lines of this peptide of 139.

B2 had a normalised SPOT signal, Boehringer light units (BLU); mean over the file's lines of this peptide of 102.

Regarding B3, the normalised SPOT signal, Boehringer light units (BLU); mean over the file's lines of this peptide was 183.

For B4, the normalised SPOT signal, Boehringer light units (BLU); mean over the file's lines of this peptide was 4360.

Molecule B5 yielded a normalised SPOT signal, Boehringer light units (BLU); mean over the file's lines of this peptide of 161.

Take B6: the normalised SPOT signal, Boehringer light units (BLU); mean over the file's lines of this peptide worked out at 164.

For the molecule B7, the normalised SPOT signal, Boehringer light units (BLU); mean over the file's lines of this peptide was 164.

On to B8, for which the normalised SPOT signal, Boehringer light units (BLU); mean over the file's lines of this peptide turned out to be 162.

On to B9, for which the normalised SPOT signal, Boehringer light units (BLU); mean over the file's lines of this peptide amounted to 213.

The molecule B10 returned a normalised SPOT signal, Boehringer light units (BLU); mean over the file's lines of this peptide of 112.

B11 returned a normalised SPOT signal, Boehringer light units (BLU); mean over the file's lines of this peptide of 157.

With B12, the normalised SPOT signal, Boehringer light units (BLU); mean over the file's lines of this peptide was 56.7.

B13: the normalised SPOT signal, Boehringer light units (BLU); mean over the file's lines of this peptide is 27.7.

In turn, B14 came in with a normalised SPOT signal, Boehringer light units (BLU); mean over the file's lines of this peptide of 45.8.

For the molecule B15, the normalised SPOT signal, Boehringer light units (BLU); mean over the file's lines of this peptide is 105.

Regarding B16, the normalised SPOT signal, Boehringer light units (BLU); mean over the file's lines of this peptide turned out to be 102.

In turn, B17 returned a normalised SPOT signal, Boehringer light units (BLU); mean over the file's lines of this peptide of 69.7.

Consider B18, for which the normalised SPOT signal, Boehringer light units (BLU); mean over the file's lines of this peptide was 483.

As for B19, the normalised SPOT signal, Boehringer light units (BLU); mean over the file's lines of this peptide came out at 145.

As for B20, the normalised SPOT signal, Boehringer light units (BLU); mean over the file's lines of this peptide worked out at 275.

In turn, B21 displayed a normalised SPOT signal, Boehringer light units (BLU); mean over the file's lines of this peptide of 83.8.

B22 displayed a normalised SPOT signal, Boehringer light units (BLU); mean over the file's lines of this peptide of 441.

With B23, the normalised SPOT signal, Boehringer light units (BLU); mean over the file's lines of this peptide came to 129.

Regarding B24, the normalised SPOT signal, Boehringer light units (BLU); mean over the file's lines of this peptide was determined as 178.

Consider B25, for which the normalised SPOT signal, Boehringer light units (BLU); mean over the file's lines of this peptide was found to be 121.

Consider B26, for which the normalised SPOT signal, Boehringer light units (BLU); mean over the file's lines of this peptide is 257.

For the molecule B27, the normalised SPOT signal, Boehringer light units (BLU); mean over the file's lines of this peptide is 164.

In turn, B28 had a normalised SPOT signal, Boehringer light units (BLU); mean over the file's lines of this peptide of 214.

B29 came in with a normalised SPOT signal, Boehringer light units (BLU); mean over the file's lines of this peptide of 182.

B30 returned a normalised SPOT signal, Boehringer light units (BLU); mean over the file's lines of this peptide of 120.

With B31, the normalised SPOT signal, Boehringer light units (BLU); mean over the file's lines of this peptide came out at 166.

As for B32, the normalised SPOT signal, Boehringer light units (BLU); mean over the file's lines of this peptide was 32.8.

Molecule B33 came in with a normalised SPOT signal, Boehringer light units (BLU); mean over the file's lines of this peptide of 156.

Take B34: the normalised SPOT signal, Boehringer light units (BLU); mean over the file's lines of this peptide was 29.2.

B35 yielded a normalised SPOT signal, Boehringer light units (BLU); mean over the file's lines of this peptide of 284.

As to B36, the normalised SPOT signal, Boehringer light units (BLU); mean over the file's lines of this peptide turned out to be 127.

In the case of B37, the normalised SPOT signal, Boehringer light units (BLU); mean over the file's lines of this peptide is 773.

B38 showed a normalised SPOT signal, Boehringer light units (BLU); mean over the file's lines of this peptide of 884.

In turn, B39 gave a normalised SPOT signal, Boehringer light units (BLU); mean over the file's lines of this peptide of 5100.
